Our source for the Alamar Blue proliferation of BaF3/CRF2-4/zcytor11 cells, IL-TIF-CEE values is patent US20020012669A1.

This test deals with CRF2-4/zcytor11 heterodimeric receptor on BaF3/CRF2-4/zcytor11 cells (human) (UniProt Q8N6P7). Nature of the test: cell-based or functional assay.
Sequence of CRF2-4/zcytor11 heterodimeric receptor on BaF3/CRF2-4/zcytor11 cells (human) (Q8N6P7 16-574 limits assumed, chain 1 of 2): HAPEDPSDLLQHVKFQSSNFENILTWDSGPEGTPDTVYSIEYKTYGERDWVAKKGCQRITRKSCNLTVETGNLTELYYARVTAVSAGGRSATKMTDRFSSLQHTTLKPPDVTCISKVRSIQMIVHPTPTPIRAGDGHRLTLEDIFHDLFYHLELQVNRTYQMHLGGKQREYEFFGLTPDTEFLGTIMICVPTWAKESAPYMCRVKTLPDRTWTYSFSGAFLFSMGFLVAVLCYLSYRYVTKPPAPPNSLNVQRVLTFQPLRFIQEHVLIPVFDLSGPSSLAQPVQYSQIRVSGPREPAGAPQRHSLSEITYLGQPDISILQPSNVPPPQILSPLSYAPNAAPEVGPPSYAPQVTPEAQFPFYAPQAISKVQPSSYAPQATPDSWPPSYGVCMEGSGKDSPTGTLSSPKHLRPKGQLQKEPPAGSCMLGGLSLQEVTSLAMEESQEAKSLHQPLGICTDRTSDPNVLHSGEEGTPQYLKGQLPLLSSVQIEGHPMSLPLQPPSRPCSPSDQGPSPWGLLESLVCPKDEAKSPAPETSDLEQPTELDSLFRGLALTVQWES
Sequence of CRF2-4/zcytor11 heterodimeric receptor on BaF3/CRF2-4/zcytor11 cells (human) (Q08334 20-325 limits assumed, chain 2 of 2, further chain): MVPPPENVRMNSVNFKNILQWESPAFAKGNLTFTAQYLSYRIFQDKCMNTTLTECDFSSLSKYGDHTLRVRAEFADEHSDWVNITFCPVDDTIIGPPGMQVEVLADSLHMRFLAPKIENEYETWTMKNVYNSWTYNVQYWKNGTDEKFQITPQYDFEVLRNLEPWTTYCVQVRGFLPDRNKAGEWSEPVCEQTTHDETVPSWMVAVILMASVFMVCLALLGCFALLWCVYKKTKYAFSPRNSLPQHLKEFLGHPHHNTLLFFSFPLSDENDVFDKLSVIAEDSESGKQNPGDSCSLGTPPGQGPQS

Turning to “IL-TIF-CEE (human IL-TIF with C-terminal Glu-Glu tag) (from UniProt Q9GZX6 34-179) (ligand)”, the Alamar Blue proliferation of BaF3/CRF2-4/zcytor11 cells, IL-TIF-CEE at 0.06 ng/ml (fold induction) turned out to be 2 and the Alamar Blue proliferation of BaF3/CRF2-4/zcytor11 cells, IL-TIF-CEE at 50 ng/ml (fold over background) turned out to be 15.
